# Results taken from patent publication WO2021212049A2.
# Target: trimeric SARS-CoV-2 spike (residues 1-1213), 986PP987, furin sites disrupted, C-terminal foldon and hexahistidine tag (SARS-CoV-2) (UniProt P0DTC2)
substance,measurement,value
2B04 Fab (papain-cleaved Fab form of 2B04),total buried surface area of the complex,656 Å2
